# T1: cynomolgus CD137, cell-surface (cynomolgus, UniProt Q07011 24-255 (human entry))
# T1 construct: also called DO11.10.cCD137; CD137 on cynomolgus T cells
# T1 chain: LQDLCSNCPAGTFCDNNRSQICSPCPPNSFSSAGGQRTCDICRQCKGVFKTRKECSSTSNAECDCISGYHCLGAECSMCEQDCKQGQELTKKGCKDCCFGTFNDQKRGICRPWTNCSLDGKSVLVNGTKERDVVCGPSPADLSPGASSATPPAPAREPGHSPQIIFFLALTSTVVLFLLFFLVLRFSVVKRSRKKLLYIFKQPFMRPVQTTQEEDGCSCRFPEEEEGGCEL
# T2: FcgRIIA 131H on CHO cells (UniProt P12318 34-317, limits assumed)
# T2 construct: whole, on cells; also called CHO.FcγRIIA.131H
# T2 sequence (looked up): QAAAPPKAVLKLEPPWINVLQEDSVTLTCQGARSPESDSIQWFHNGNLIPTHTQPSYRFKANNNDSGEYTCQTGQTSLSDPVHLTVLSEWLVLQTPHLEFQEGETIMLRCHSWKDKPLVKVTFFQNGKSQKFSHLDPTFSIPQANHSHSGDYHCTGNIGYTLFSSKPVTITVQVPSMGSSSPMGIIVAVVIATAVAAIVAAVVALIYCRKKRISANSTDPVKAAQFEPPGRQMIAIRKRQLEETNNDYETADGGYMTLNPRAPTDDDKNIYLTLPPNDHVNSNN
# T3: FcgRIIB on CHO cells (UniProt P31994 43-310)
# T3 construct: whole, on cells; also called CHO.FcγRIIB
# T3 sequence (looked up): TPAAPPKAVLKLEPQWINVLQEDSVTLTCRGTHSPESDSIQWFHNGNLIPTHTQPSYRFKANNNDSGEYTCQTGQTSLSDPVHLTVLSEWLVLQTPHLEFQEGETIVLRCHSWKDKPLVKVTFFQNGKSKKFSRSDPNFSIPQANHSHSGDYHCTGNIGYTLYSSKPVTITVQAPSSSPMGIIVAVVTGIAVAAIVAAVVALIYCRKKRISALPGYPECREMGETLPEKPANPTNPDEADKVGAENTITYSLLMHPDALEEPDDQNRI
# Key:
# [1] = target: T4, human PD-L1, cell-surface (human, UniProt Q9NZQ7 19-290); assay: cell-based or functional assay
# T4 sequence (Q9NZQ7 19-290): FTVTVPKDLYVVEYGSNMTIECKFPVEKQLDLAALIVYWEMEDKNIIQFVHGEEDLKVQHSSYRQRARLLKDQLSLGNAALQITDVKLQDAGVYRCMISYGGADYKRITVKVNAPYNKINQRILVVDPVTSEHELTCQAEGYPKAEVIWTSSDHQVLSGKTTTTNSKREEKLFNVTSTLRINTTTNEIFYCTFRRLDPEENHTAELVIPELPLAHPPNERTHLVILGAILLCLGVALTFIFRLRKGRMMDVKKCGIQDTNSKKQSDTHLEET
# [2] = target: T4, human PD-L1, cell-surface; assay: cell-based or functional assay; remark: listed apart in the source
# [3] = target: T4, human PD-L1, cell-surface; assay: flow cytometry on HEK.hPD-L1
# Protocol: (§1) Non-specific binding was also assessed by testing binding to HEK293 parental cells lacking human PD-L1 (Flp-In T-Rex 293 cell line, Life Technologies, R780-07).
# (§2) HEK293, HEK.hPD-L1 and HEK.cPD-L1 suspensions were prepared in FACS buffer (DPBS (Gibco, 14190-094) containing 0.5% BSA (Sigma, A7906)) and seeded at 1×10⁵ cell/well in 100 μl in round bottomed 96-well plates (VWR, 734-1797). […] The washed cells were resuspended in the diluted antibody mixture, incubated at 4° C. for 30 minutes, and then washed once in FACS buffer. […] Dead cells were excluded and the fluorescence in the APC channel (638 nm 660/20) was measured. The geometric mean fluorescence intensity (GMFI) values were plotted vs the log concentration of antibody and the resulting curves were fitted using the log (agonist) vs response equation in GraphPad Prism.
# [4] = target: T4, human PD-L1, cell-surface; assay: cell-based or functional assay; remark: listed apart in the source
# [5] = target: T5, cPD-L1-His (Acro Biosystems, PD1-C52H4) (cynomolgus, UniProt Q9NZQ7 19-238 (human entry)); assay: SPR, antibody captured on Protein A chip, antigen in flow
# T5 construct: bought; also called Cyno PD-L1-His; Cynomolgus PD-L1-His; not shown: His tag of the bought product
# T5 sequence (Q9NZQ7 other isoform, or with tags, fused parts or gaps): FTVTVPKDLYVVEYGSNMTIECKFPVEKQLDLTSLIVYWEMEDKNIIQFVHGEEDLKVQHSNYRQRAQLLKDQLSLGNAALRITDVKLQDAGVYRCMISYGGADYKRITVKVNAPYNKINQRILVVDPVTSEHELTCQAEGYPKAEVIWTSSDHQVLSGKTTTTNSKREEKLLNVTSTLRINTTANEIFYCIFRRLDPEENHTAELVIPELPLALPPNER
# [6] = target: T6, biotinylated hPD-L1-Avi-His (Acro Biosystems, PD1-H82E5) (human, UniProt Q9NZQ7 19-238, biotinylated); assay: as above
# T6 construct: bought; also called Human PD-L1-His; not shown: Avi and His tags of the bought product
# T6 sequence (Q9NZQ7 19-238): as the sequence (Q9NZQ7 other isoform, or with tags, fused parts or gaps) above, with T33A, S34A, N62S, Q68R, R82Q, L173F, A185T, I192T, L215H counted along it
# [7] = target: T4, human PD-L1, cell-surface; assay: flow cytometry on activated primary human CD4+ T cells; activated primary human CD4+ T cells
# Protocol: CD137 is rapidly expressed to high levels on activated CD8⁺ T cells and also on activated CD4⁺ T cells with lower levels (Xue-Zhong Yu et al, 2013), therefore Pan T cells were stimulated for 24 hours using Dynabeads™ Human T-Activator CD3/CD28 beads (Thermo, 11132D) according to manufacturer's instructions.
# Dead cells were excluded and the fluorescence in the APC channel (638 nm 660/20) was measured to show test antibody binding. The geometric Mean Fluorescence Intensity (GMFI) values were plotted vs the log concentration of antibody and the resulting curves were fitted using the log (agonist) vs response equation in GraphPad Prism.
# [8] = target: T7, cynomolgus PD-L1, cell-surface (cynomolgus); assay: flow cytometry on HEK.cPD-L1
# T7 construct: also called HEK.cPD-L1; HEK.cyPD-L1
# T7 sequence (chain, as listed by the source limits assumed): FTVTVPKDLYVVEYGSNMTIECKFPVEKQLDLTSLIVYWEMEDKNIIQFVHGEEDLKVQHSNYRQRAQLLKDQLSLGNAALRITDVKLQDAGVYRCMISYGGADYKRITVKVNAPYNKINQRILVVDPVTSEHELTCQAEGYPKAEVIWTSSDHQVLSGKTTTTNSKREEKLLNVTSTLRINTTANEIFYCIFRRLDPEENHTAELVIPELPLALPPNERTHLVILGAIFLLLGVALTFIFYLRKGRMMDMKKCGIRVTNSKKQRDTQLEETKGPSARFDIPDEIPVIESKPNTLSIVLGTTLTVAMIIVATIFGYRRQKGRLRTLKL
# Protocol: as §1, §2
# [9] = target: T4, human PD-L1, cell-surface; assay: cell-based or functional assay; remark: listed apart in the source
# [10] = target: T8, Cyno PD-L1-rCD4-His (cynomolgus, UniProt Q9NZQ7 19-238 (human entry)); assay: SPR
# T8 construct: also called cynomolgus PD-L1-rCD4-His; not shown: rat CD4 domains 3 and 4 and His tag
# T8 sequence (Q9NZQ7 other isoform, or with tags, fused parts or gaps): as the sequence (Q9NZQ7 other isoform, or with tags, fused parts or gaps) above
# [11] = target: T9, hPD-L1-rCD4-His (human); assay: SPR
# T9 construct: also called human PD-L1-rCD4-His; hu-PD-L1-rCD4-His
# T9 sequence (chain, as listed by the source): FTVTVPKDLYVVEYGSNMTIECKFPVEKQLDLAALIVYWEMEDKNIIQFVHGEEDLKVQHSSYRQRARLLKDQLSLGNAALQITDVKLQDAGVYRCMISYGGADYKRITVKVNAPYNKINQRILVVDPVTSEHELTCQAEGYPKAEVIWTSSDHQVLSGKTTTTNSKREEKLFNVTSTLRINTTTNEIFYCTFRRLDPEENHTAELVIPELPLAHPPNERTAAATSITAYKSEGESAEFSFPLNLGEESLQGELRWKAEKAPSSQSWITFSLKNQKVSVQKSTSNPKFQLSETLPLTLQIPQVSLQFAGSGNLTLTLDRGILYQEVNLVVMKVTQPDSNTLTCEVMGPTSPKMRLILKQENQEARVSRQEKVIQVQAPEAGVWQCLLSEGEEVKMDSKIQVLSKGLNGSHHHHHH
# [12] = target: T1, cynomolgus CD137, cell-surface; assay: flow cytometry on DO11.10.cCD137
# Protocol: (§3) Non-specific binding was also assessed by testing binding to DO11.10 cells lacking CD137 expression.
# as §2, with “Briefly, DO11.10, DO11.10.hCD137 or DO11.10.cCD137” for “HEK293, HEK.hPD-L1 and HEK.cPD-L1”, “(DPBS containing” for “(DPBS”
# [13] = target: T10, human CD137, cell-surface (human, UniProt Q07011 24-255); assay: cell-based or functional assay
# [14] = target: T10, human CD137, cell-surface; assay: flow cytometry on DO11.10.hCD137; DO11.10 cells overexpressing human CD137 (DO11.10.hCD137)
# Protocol: as §3
# as §2, with “Briefly, DO11.10, DO11.10.hCD137 or DO11.10.cCD137” for “HEK293, HEK.hPD-L1 and HEK.cPD-L1”, “(DPBS containing” for “(DPBS”
# [15] = target: T2, FcgRIIA 131H on CHO cells; assay: flow cytometry on CHO cells over-expressing FcγRIIA 131H, anti-human IgG AF-488 detection
# Excerpt: (§4) However, in order to circumnavigate potential off-target effects such as systemic CD137 activation due to crosslinking by Fcγ receptor binding and to decrease the possibility of inducing ADCC of immune cells, for example T cells, that express both targets, it was decided to decrease the Fcγ receptor binding ability of the anti-human CD137/PD-L1 mAb² by introduction of a LALA mutation in the CH2 domain (see Example 3.2 for details on the LALA format).
# (§5) Briefly, CHO.FcγRIIA.131H, […], CHO.FcγRIIIA.158F, CHO.FcγRIIIA.158V, CHO.FcγRIIB, or CHO.WT suspensions were prepared in FACS buffer (DPBS containing (Gibco, 14190-094) containing 0.5% BSA (Sigma, A7906)) and seeded at 1×10⁵ cell/well in 100 μl in round bottomed 96-well plates (VWR, 734-1797). […] The washed cells were resuspended in the diluted antibody mixture, incubated at 4° C. for 30 minutes, and then washed once in FACS buffer. […] The geometric mean fluorescence intensity (GMFI) values were plotted vs the log concentration of antibody and the resulting curves were fitted using the log (agonist) vs response equation in GraphPad Prism.
# [16] = target: T11, FcgRIIIA 158V on CHO cells (UniProt P08637 17-254); assay: flow cytometry on CHO cells over-expressing FcγRIIIA 158V, anti-human IgG AF-488 detection
# T11 construct: whole, on cells; also called CHO.FcγRIIIA.158V
# T11 sequence (P08637 17-254 F176V limits assumed): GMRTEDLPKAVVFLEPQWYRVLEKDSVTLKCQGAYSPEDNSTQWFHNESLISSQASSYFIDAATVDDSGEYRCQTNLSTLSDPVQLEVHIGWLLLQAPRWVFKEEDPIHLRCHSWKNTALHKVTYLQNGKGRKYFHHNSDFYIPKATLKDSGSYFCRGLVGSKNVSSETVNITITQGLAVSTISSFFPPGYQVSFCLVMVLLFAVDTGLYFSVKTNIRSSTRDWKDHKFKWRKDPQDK
# Excerpt: as §4, §5
# [17] = target: T12, FcgRIIIA 158F on CHO cells (UniProt P08637 17-254, limits assumed); assay: flow cytometry on CHO cells over-expressing FcγRIIIA 158F, anti-human IgG AF-488 detection
# T12 construct: whole, on cells; also called CHO.FcγRIIIA.158F
# T12 sequence (P08637 17-254 limits assumed): as the sequence (P08637 17-254 F176V limits assumed) above, with V160F counted along it
# Excerpt: as §4, §5
# [18] = target: T3, FcgRIIB on CHO cells; assay: flow cytometry on CHO cells over-expressing FcγRIIB, anti-human IgG AF-488 detection
# Excerpt: as §4, §5
binder,measurement,setting,value
"G1-AA/E12v2 (antibody, human IgG1, kappa, L234A L235A, V domains shown, anti-PD-L1 IgG1 with LALA) VH: EVQLVQSGAEVKRPGASVKVSCKASGYPFTSYGISWVRQAPGQGLEWMGWISAYSGGTNYAQKLQGRVTMTTDTSTSTAYMELRSLRSDDTAVYYCARDLFPTIFGVSYYYYWGQGTLVTVSS VL: DIQMTQSPSTLSASVRDRVIITCRASQSIGNRLAWYQHKPGKAPKLLIYEASTSETGVPSRFSGSGSGTDFTLTISSLQPEDFATYYCQQSYSTPYTFGQGTKLEIKR","EC50 (nM), mouse IL-2 release, DO11.10 / LK35.2 PD-L1 blockade assay",[1],1.19 nM
same,"EC50 (nM), IFN-γ release, CEFT antigen recall assay (CD4+ T cell activation)",[2],0.06 nM
same,EC50,[3],3.1 nM
same,"EC50 (nM), IFN-γ release, CEF antigen recall assay (CD8+ T cell activation)",[4],0.04 nM
same,Kd,[5],0.37 nM
same,Kd,[6],0.21 nM
same,EC50,[7],0.8 nM
same,EC50,[8],0.6 nM
same,"EC50 (nM), IFN-γ release, human MLR",[9],0.08 nM
"G1/929_01_A02 (antibody, IgG1, V domains shown, IgG1 without LALA) VH: EVQLVQSGAEVKRPGASVKVSCKASGYTFTSYGISWVRQAPGQGLEWMGWISAYSGGTNYAQKLQGRVTMTTDTSTSTAYMELRSLRSDDTAVYYCARDLFPTIFGVSYYYYWGQGTLVTVSS VL: DIQMTQSPSTLSASVRDRVIITCRASQSIGNRLAWYQHKPGKAPKLLIYEASTSETGVPSRFSGSGSGTDFTLTISSLQPEDFATYYCQQSYSTPYTFGQGTKLEIK",fold lower affinity than G1-AA/E12v2,[10],> 10 fold
same,fold lower affinity than G1-AA/E12v2,[11],> 10 fold
"FS22-172-003-AA/HeID1.3 (bispecific antibody, human IgG1, kappa, L234A L235A, mock mAb^2 with LALA) heavy: QVQLQESGPGLVRPSQTLSLTCTVSGSTFSGYGVNWVRQPPGRGLEWIGMIWGDGNTDYNSALKSRVTMLVDTSKNQFSLRLSSVTAADTAVYYCARERDYRLDYWGQGSLVTVSSASTKGPSVFPLAPSSKSTSGGTAALGCLVKDYFPEPVTVSWNSGALTSGVHTFPAVLQSSGLYSLSSVVTVPSSSLGTQTYICNVNHKPSNTKVDKKVEPKSCDKTHTCPPCPAPEAAGGPSVFLFPPKPKDTLMISRTPEVTCVVVDVSHEDPEVKFNWYVDGVEVHNAKTKPREEQYNSTYRVVSVLTVLHQDWLNGKEYKCKVSNKALPAPIEKTISKAKGQPREPQVYTLPPSRDELPYIIPPYNQVSLTCLVKGFYPSDIAVEWESNGQPENNYKTTPPVLDSDGSFFLYSKLTVGADRWLEGNVFSCSVMHEALHNHYTQKSLSLSPG light: DIQMTQSPASLSASVGETVTITCRASGNIHNYLAWYQQKQGKSPQLLVYNAKTLADGVPSRFSGSGSGTQYSLKINSLQPEDFGSYYCQHFWSTPRTFGGGTKLEIKRTVAAPSVFIFPPSDEQLKSGTASVVCLLNNFYPREAKVQWKVDNALQSGNSQESVTEQDSKDSTYSLSSTLTLSKADYEKHKVYACEVTHQGLSSPVTKSFNRGEC",EC50,[12],9.09 nM
same,"Emax (pg/ml), IFN-γ release, human MLR (EC50 N/A)",[13],3570 pg/mL
same,EC50,[14],6.25 nM
"G1/4420 (antibody, human IgG1, kappa) heavy: not shown light: DVVMTQTPLSLPVSLGDQASISCRSSQSLVHSNGNTYLRWYLQKPGQSPKVLIYKVSNRFSGVPDRFSGSGSGTDFTLKISRVEAEDLGVYFCSQSTHVPWTFGGGTKLEIKRTVAAPSVFIFPPSDEQLKSGTASVVCLLNNFYPREAKVQWKVDNALQSGNSQESVTEQDSKDSTYSLSSTLTLSKADYEKHKVYACEVTHQGLSSPVTKSFNRGEC",binding result,[15],binds
same,binding result,[16],binds
same,binding result,[17],binds
same,binding result,[18],binds

# From US20250346679A1 (INVOX PHARMA, published 2025)
